Test [1] addresses PKA (RIIα), regulatory subunit of type II cAMP-dependent protein kinase, residues 2-44. The experiment in a line: ITC. (ITC needs no label: the signal is the heat of the interaction.)
The next test concerns the target FLAG-tagged PKA (RIIα) (UniProt P13861). Put plainly: co-IP.
A further test addresses PKA (RIα) (Homo sapiens) (UniProt P10644). Conditions: cited from earlier work.
Test [2] addresses PKA (RIIα) (Homo sapiens) (UniProt P13861). Conditions: cited from earlier work.

The Kd is the free concentration of one partner at which half of the binding sites on the other are occupied at equilibrium, for simple one-to-one binding.

Chain of D-AKAP2 (O43572 29-662): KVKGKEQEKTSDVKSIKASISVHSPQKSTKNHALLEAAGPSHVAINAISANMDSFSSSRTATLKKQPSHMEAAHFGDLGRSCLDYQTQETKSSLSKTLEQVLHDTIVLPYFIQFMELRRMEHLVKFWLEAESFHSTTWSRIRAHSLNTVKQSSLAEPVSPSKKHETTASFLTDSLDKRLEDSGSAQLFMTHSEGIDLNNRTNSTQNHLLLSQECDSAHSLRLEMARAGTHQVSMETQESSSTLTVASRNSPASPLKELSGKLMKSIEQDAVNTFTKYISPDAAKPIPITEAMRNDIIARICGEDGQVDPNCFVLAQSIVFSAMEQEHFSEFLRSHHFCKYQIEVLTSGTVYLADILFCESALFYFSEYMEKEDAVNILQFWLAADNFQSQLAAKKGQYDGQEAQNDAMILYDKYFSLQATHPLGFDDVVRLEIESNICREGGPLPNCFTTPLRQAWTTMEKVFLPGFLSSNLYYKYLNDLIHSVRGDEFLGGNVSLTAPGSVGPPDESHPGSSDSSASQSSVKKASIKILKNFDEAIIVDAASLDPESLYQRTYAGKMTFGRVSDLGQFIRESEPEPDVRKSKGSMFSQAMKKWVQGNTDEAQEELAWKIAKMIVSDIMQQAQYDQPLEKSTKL
Chain of PKA (RIα) (Homo sapiens) (P10644 whole entry): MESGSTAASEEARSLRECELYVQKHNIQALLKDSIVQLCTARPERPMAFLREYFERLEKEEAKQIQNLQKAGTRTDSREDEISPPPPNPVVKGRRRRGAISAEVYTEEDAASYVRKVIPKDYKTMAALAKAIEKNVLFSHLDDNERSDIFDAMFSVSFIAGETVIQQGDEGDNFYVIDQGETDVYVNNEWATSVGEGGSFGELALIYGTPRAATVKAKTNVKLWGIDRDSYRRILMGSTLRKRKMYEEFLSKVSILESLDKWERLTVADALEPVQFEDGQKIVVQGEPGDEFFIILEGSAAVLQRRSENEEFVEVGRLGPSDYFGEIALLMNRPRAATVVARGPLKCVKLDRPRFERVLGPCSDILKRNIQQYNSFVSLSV

In test [1], “Trx-NHR3(585-615) V601A (domain or fragment)” came in with a Kd of 14000 nM.
In turn, “Trx-NHR3(585-615) W594A (domain or fragment)” gave a Kd in test [1] of 909 nM.
In test [1], “AML1-ETO Nervy Homology Region 3 (NHR3) domain, residues A585-N654 (domain or fragment)” had a dissociation constant (Kd) of 67 nM and a stoichiometry N (NHR3 : PKA (RIIα) chains (1:2)) of 0.5.
For Trx-NHR3(585-654) (domain or fragment), the Kd in test [1] was determined as 128 nM.
For Trx-NHR3(585-615) (domain or fragment), the Kd in test [1] amounted to 256 nM.
Still for that read-out and setting: then “Trx-NHR3(585-615) V604A (domain or fragment)”, with 383 nM.
With AML1-ETO V601A (natural protein), in the test with FLAG-tagged PKA (RIIα), the fold decrease of the interaction relative to AML1-ETO came to 2 fold.
As for D-AKAP2 (from UniProt O43572), the figures for the Kd (with PKA (RIα) (Homo sapiens); in test [2]) were 48 nM and 2 nM, respectively.

Source of the values: PMC2945414.
